Here are results for 8 molecules from patent US20240018502A1.

B1: MTSP-1 Q38L/H40P/I41T/D60bV/F60eH/Y60gL/ins97aE/F97T/T98G/F99L/C122S/Q175L/Q192A (enzyme)
chain: VVGGTDADEGEWPWQVSLHALGLGPTCGASLISPNWLVSAAHCYIDVRGHRLSDPTQWTAFLGLHDQSQRSAPGVQERRLKRIISHPFFNDTEGLDYDIALLELEKPAEYSSMVRPISLPDASHVFPAGKAIWVTGWGHTQYGGTGALILQKGEIRVINQTTCENLLPQLITPRMMCVGFLSGGVDSCAGDSGGPLSSVEADGRIFQAGVVSWGDGCAQRNKPGVYTRLPLFRDWIKENTGV
B2: MTSP-1 Q38H/I41S/D60bA/F60eV/ins97aE/F97T/T98G/F99L/C122S/Q175L/Q192V (enzyme)
chain: VVGGTDADEGEWPWQVSLHALGHGHSCGASLISPNWLVSAAHCYIDARGVRYSDPTQWTAFLGLHDQSQRSAPGVQERRLKRIISHPFFNDTEGLDYDIALLELEKPAEYSSMVRPISLPDASHVFPAGKAIWVTGWGHTQYGGTGALILQKGEIRVINQTTCENLLPQLITPRMMCVGFLSGGVDSCVGDSGGPLSSVEADGRIFQAGVVSWGDGCAQRNKPGVYTRLPLFRDWIKENTGV
B3: MTSP-1 Q38H/I41A/D60bT/F60eK/ins97aE/F97T/T98G/F99L/C122S/Q175L/Q192E (enzyme)
chain: VVGGTDADEGEWPWQVSLHALGHGHACGASLISPNWLVSAAHCYIDTRGKRYSDPTQWTAFLGLHDQSQRSAPGVQERRLKRIISHPFFNDTEGLDYDIALLELEKPAEYSSMVRPISLPDASHVFPAGKAIWVTGWGHTQYGGTGALILQKGEIRVINQTTCENLLPQLITPRMMCVGFLSGGVDSCEGDSGGPLSSVEADGRIFQAGVVSWGDGCAQRNKPGVYTRLPLFRDWIKENTGV
B4: MTSP-1 Q38R/I41T/D60bH/ins97aE/F97T/T98G/F99L/C122S/Q175L/Q192G (enzyme)
chain: VVGGTDADEGEWPWQVSLHALGRGHTCGASLISPNWLVSAAHCYIDHRGFRYSDPTQWTAFLGLHDQSQRSAPGVQERRLKRIISHPFFNDTEGLDYDIALLELEKPAEYSSMVRPISLPDASHVFPAGKAIWVTGWGHTQYGGTGALILQKGEIRVINQTTCENLLPQLITPRMMCVGFLSGGVDSCGGDSGGPLSSVEADGRIFQAGVVSWGDGCAQRNKPGVYTRLPLFRDWIKENTGV
B5: MTSP-1 Q38K/I41T/ins97aE/F97T/T98G/F99L/C122S/Q175L/Q192A (enzyme)
chain: VVGGTDADEGEWPWQVSLHALGKGHTCGASLISPNWLVSAAHCYIDDRGFRYSDPTQWTAFLGLHDQSQRSAPGVQERRLKRIISHPFFNDTEGLDYDIALLELEKPAEYSSMVRPISLPDASHVFPAGKAIWVTGWGHTQYGGTGALILQKGEIRVINQTTCENLLPQLITPRMMCVGFLSGGVDSCAGDSGGPLSSVEADGRIFQAGVVSWGDGCAQRNKPGVYTRLPLFRDWIKENTGV
B6: MTSP-1 Q38L/I41T/D60bV/F60eH/Y60gL/ins97aE/F97T/T98G/F99L/C122S/Q175L/Q192S (enzyme)
chain: VVGGTDADEGEWPWQVSLHALGLGHTCGASLISPNWLVSAAHCYIDVRGHRLSDPTQWTAFLGLHDQSQRSAPGVQERRLKRIISHPFFNDTEGLDYDIALLELEKPAEYSSMVRPISLPDASHVFPAGKAIWVTGWGHTQYGGTGALILQKGEIRVINQTTCENLLPQLITPRMMCVGFLSGGVDSCSGDSGGPLSSVEADGRIFQAGVVSWGDGCAQRNKPGVYTRLPLFRDWIKENTGV
B7: MTSP-1 Q38H/I41S/D60bT/F60eR/ins97aE/F97T/T98G/F99L/C122S/Q175L/Q192E (enzyme)
chain: VVGGTDADEGEWPWQVSLHALGHGHSCGASLISPNWLVSAAHCYIDTRGRRYSDPTQWTAFLGLHDQSQRSAPGVQERRLKRIISHPFFNDTEGLDYDIALLELEKPAEYSSMVRPISLPDASHVFPAGKAIWVTGWGHTQYGGTGALILQKGEIRVINQTTCENLLPQLITPRMMCVGFLSGGVDSCEGDSGGPLSSVEADGRIFQAGVVSWGDGCAQRNKPGVYTRLPLFRDWIKENTGV
B8: MTSP-1 Q38H/I41A/D60bV/F60eH/ins97aE/F97T/T98G/F99L/C122S/Q175L/Q192D (enzyme)
chain: VVGGTDADEGEWPWQVSLHALGHGHACGASLISPNWLVSAAHCYIDVRGHRYSDPTQWTAFLGLHDQSQRSAPGVQERRLKRIISHPFFNDTEGLDYDIALLELEKPAEYSSMVRPISLPDASHVFPAGKAIWVTGWGHTQYGGTGALILQKGEIRVINQTTCENLLPQLITPRMMCVGFLSGGVDSCDGDSGGPLSSVEADGRIFQAGVVSWGDGCAQRNKPGVYTRLPLFRDWIKENTGV

Chain of plasma purified human complement protein C3 (human) (P01024 23-667, chain 1 of 2): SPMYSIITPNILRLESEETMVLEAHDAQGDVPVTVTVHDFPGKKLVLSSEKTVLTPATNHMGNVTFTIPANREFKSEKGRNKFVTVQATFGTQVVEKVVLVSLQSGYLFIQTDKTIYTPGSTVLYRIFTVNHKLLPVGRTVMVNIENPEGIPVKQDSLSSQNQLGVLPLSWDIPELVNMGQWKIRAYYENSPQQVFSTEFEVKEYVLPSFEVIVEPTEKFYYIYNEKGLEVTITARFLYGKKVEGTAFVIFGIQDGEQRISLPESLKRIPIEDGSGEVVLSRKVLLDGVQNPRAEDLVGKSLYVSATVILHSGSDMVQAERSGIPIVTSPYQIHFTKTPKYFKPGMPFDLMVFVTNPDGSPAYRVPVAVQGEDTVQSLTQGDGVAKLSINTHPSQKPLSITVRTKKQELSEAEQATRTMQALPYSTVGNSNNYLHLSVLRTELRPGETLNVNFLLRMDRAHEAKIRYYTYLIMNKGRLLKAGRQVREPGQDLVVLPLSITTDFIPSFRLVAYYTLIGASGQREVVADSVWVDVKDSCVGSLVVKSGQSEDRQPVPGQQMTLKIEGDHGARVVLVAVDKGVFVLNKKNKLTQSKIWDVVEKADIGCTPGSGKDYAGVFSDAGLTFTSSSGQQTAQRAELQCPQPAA
Chain of plasma purified human complement protein C3 (human) (P01024 672-1663, chain 2 of 2): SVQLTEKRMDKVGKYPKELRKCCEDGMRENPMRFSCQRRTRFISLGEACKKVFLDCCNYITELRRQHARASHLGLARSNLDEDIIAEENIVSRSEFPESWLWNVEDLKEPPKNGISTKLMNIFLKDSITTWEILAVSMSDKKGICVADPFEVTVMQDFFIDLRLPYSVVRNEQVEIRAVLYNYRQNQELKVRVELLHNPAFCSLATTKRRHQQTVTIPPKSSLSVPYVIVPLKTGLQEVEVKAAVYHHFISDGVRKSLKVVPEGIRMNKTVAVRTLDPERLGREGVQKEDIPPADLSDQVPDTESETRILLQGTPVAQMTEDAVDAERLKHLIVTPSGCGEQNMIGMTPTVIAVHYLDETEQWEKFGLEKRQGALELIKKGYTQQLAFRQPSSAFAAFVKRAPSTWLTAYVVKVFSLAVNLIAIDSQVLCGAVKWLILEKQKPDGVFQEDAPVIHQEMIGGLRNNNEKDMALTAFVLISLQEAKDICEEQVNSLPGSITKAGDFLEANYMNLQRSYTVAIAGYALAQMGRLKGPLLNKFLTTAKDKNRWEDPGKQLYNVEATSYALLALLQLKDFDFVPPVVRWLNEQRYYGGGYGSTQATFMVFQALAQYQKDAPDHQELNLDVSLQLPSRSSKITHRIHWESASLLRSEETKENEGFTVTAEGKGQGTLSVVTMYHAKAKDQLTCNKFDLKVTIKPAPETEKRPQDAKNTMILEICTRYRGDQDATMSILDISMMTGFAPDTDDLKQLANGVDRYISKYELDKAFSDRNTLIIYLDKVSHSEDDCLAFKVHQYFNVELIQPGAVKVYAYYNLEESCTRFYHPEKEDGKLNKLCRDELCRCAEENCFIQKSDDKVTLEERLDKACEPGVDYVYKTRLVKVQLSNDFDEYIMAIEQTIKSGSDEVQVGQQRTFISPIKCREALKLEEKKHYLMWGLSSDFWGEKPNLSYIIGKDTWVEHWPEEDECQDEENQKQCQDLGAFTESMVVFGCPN

The experiment has as its target plasma purified human complement protein C3 (human) (UniProt P01024). The experiment in a line: cell-based or functional assay.
The molecule B1 showed an EC50 of hC3 cleavage of 6.47 nM.
Under B2 stands 10.9 nM; under B3, 14.6 nM.
Then B4, with 26.2 nM.
Under B5 stands 37.8 nM.
B6 gave an EC50 of hC3 cleavage of 13.1 nM.
As for B7, the EC50 of hC3 cleavage was 15.4 nM.
Regarding B8, the EC50 of hC3 cleavage was 5.31 nM.
